These results are taken from publication PMC2876729 (The Biochemical journal, 2010).

B1: Recombinant human transglutaminase-2 (enzyme, UniProt P21980 1-687, looked up)
chain: MAEELVLERCDLELETNGRDHHTADLCREKLVVRRGQPFWLTLHFEGRNYEASVDSLTFSVVTGPAPSQEAGTKARFPLRDAVEEGDWTATVVDQQDCTLSLQLTTPANAPIGLYRLSLEASTGYQGSSFVLGHFILLFNAWCPADAVYLDSEEERQEYVLTQQGFIYQGSAKFIKNIPWNFGQFEDGILDICLILLDVNPKFLKNAGRDCSRRSSPVYVGRVVSGMVNCNDDQGVLLGRWDNNYGDGVSPMSWIGSVDILRRWKNHGCQRVKYGQCWVFAAVACTVLRCLGIPTRVVTNYNSAHDQNSNLLIEYFRNEFGEIQGDKSEMIWNFHCWVESWMTRPDLQPGYEGWQALDPTPQEKSEGTYCCGPVPVRAIKEGDLSTKYDAPFVFAEVNADVVDWIQQDDGSVHKSINRSLIVGLKISTKSVGRDEREDITHTYKYPEGSSEEREAFTRANHLNKLAEKEETGMAMRIRVGQSMNMGSDFDVFAHITNNTAEEYVCRLLLCARTVSYNGILGPECGTKYLLNLNLEPFSEKSVPLCILYEKYRDCLTESNLIKVRALLVEPVINSYLLAERDLYLENPEIKIRILGEPKQKRKLVAEVSLQNPLPVALEGCTFTVEGAGLTEEQKTVEIPDPVEAGEEVKVRMDLLPLHMGLHKLVVNFESDKLKAVKGFRNVIIGPA
B2: Recombinant human endostatin produced in HEK 293-EBNA cells (wild type) (domain or fragment, UniProt P39060 1572-1754, looked up)
chain: HSHRDFQPVLHLVALNSPLSGGMRGIRGADFQCFQQARAVGLAGTFRAFLSSRLQDLYSIVRRADRAAVPIVNLKDELLFPSWEALFSGSEGPLKPGARIFSFDGKDVLRHPTWPQKSVWHGSDPNGRRLTESYCETWRTEAPSATGQASSLLGGRLLGQSAASCHHAYIVLCIENSFMTASK

Test [1] addresses Recombinant human endostatin expressed in Pichia pastoris (human) (UniProt P39060). The test is described as follows: SPR. (Surface plasmon resonance follows binding to a sensor surface in real time, without labels.)
The target in test [2] is Recombinant human endostatin produced in HEK 293-EBNA cells (wild type) (human) (UniProt P39060). The test is described as follows: SPR.
Test [3] addresses NC1(XVIII) domain R27A/R139A double mutant (human). Briefly: ELISA. In general terms: In an ELISA, binding on a coated surface is turned into a signal by an enzyme label.
Test [4] concerns the target B2. The test is described as follows: ELISA.
The target in test [5] is B1. Briefly: SPR.

In general, Kd refers to the concentration at which binding is half-saturated. In general, koff refers to a measure of how fast the partners let go of each other. A word on the kon: it is the second-order rate constant of association.

With “Guinea pig TG-2 extracted from liver (enzyme)”, in test [1], the dissociation constant (Kd) is 5.59 nM and the koff stood at 0.000341 s⁻¹. Also, in test [2], the equilibrium dissociation constant (Kd) was determined as 6.8 nM, the dissociation rate constant (koff) came out at 0.000765 s⁻¹, the kon came to 112000 M⁻¹ s⁻¹ and the percent inhibition of binding by 1 mM GTP is 96.7%.

“Recombinant human transglutaminase-2 (from UniProt P21980 1-687) (enzyme)”: the percent of the binding of the wild type NC1 domain in test [3] amounted to 31%.

Turning to B1, in test [4], the “fold increase of binding with 8 mM CaCl2 against no cation” value is roughly 38 fold, the “fold increase of binding with 8 mM MgCl2 against no cation” value was roughly 2 fold and the “fold increase of binding with 8 mM MnCl2 against no cation” value was roughly 10 fold.

For the molecule B2, the binding result in test [5] is “binds”.
